Laboratory results as given in US20040018561.

Assays:
[1] = target: N-2-[(7-methoxy-2-oxo-2H-chromen-4-yl)acetyl]-D-arginyl-L-prolyl-L-leucylglycyl-6-(benzyloxy)-L-norleucyl-3-[(2,4-dinitrophenyl)amino]-L-alanyl-L-alanyl-D-arginyl-D-alpha-glutamyl-D-argininamide
[2] = target: N-2-[(7-methoxy-2-oxo-2H-chromen-4-yl)acetyl]-D-arginyl-L-prolyl-L-leucylglycyl-6-phenoxy-L-norleucyl-3-[(2,4-dinitrophenyl)amino]-L-alanyl-L-alanyl-D-arginyl-D-alpha-glutamyl-D-argininamide
[3] = target: N-2-[(7-methoxy-2-oxo-2H-chromen-4-yl)acetyl]-D-arginyl-L-prolyl-L-leucylglycyl-L-leucyl-3-[(2,4-dinitrophenyl)amino]-L-alanyl-L-alanyl-D-arginyl-D-alpha-glutamyl-D-argininamide
[4] = target: N-2-[(7-methoxy-2-oxo-2H-chromen-4-yl)acetyl]-L-arginyl-L-prolyl-L-leucylglycyl-6-(benzyloxy)-L-norleucyl-3-[(2,4-dinitrophenyl)amino]-L-alanyl-L-alanyl-L-arginyl-L-alpha-glutamyl-L-argininamide
[5] = target: N-2-[(7-methoxy-2-oxo-2H-chromen-4-yl)acetyl]-L-arginyl-L-prolyl-L-leucylglycyl-L-leucyl-3-[(2,4-dinitrophenyl)amino]-L-alanyl-L-alanyl-D-arginyl-D-alpha-glutamyl-D-argininamide
[6] = target: N-2-[(7-methoxy-2-oxo-2H-chromen-4-yl)acetyl]-L-arginyl-L-prolyl-L-leucylglycyl-L-leucyl-3-[(2,4-dinitrophenyl)amino]-L-alanyl-L-alanyl-L-arginyl-L-alpha-glutamyl-L-argininamide

B1: MMP-1 (protein)
chain: FVLTEGNPRWEQTHLTYRIENYTPDLPRADVDHAIEKAFQLWSNVTPLTFTKVSEGQADIMISFVRGDHRDNSPFDGPGGNLAHAFQPGPGIGGDAHFDEDERWTNNFREYNLHRVAAHELGHSLGLSHSTDIGALMYPSYTFSGDVQLAQDDIDGIQAIYGRSQNPVQPIGPQTPKACDSKLTFDAITTIRGEVMFFKDRFYMRTNPFYPEVELNFISVFWPQLPNGLEAAYEFADRDEVRFFKGNKYWAVQGQNVLHGYPKDIYSSFGFPRTVKHIDAALSEENTGKTYFFVANKYWRYDEYKRSMDPGYPKMIAHDFPGIGHKVDAVFMKDGFFYFFHGTRQYKFDPKTKRILTLQKANSWFNCRKN
- Km [1]: 35.1 µM
- kcat/Km [1]: 3600 M⁻¹ s⁻¹
- kcat/Km [2]: 0 M⁻¹ s⁻¹
- Km [3]: 49 µM
- kcat/Km [3]: 57000 M⁻¹ s⁻¹
- kcat/Km [4]: 0 M⁻¹ s⁻¹
- Km [5]: 17.3 µM
- kcat/Km [5]: 176000 M⁻¹ s⁻¹
- Km [6]: 16 µM
- kcat/Km [6]: 255000 M⁻¹ s⁻¹

B2: MMP-2 (protein)
chain: YNFFPRKPKWDKNQITYRIIGYTPDLDPETVDDAFARAFQVWSDVTPLRFSRIHDGEADIMINFGRWEHGDGYPFDGKDGLLAHAFAPGTGVGGDSHFDDDELWTLGEGQVVRVKYGNADGEYCKFPFLFNGKEYNSCTDTGRSDGFLWCSTTYNFEKDGKYGFCPHEALFTMGGNAEGQPCKFPFRFQGTSYDSCTTEGRTDGYRWCGTTEDYDRDKKYGFCPETAMSTVGGNSEGAPCVFPFTFLGNKYESCTSAGRSDGKMWCATTANYDDDRKWGFCPDQGYSLFLVAAHEFGHAMGLEHSQDPGALMAPIYTYTKNFRLSQDDIKGIQELYGASPDIDLGTGPTPTLGPVTPEICKQDIVFDGIAQIRGEIFFFKDRFIWRTVTPRDKPMGPLLVATFWPELPEKIDAVYEAPQEEKAVFFAGNEYWIYSASTLERGYPKPLTSLGLPPDVQRVDAAFNWSKNKKTYIFAGDKFWRYNEVKKKMDPGFPKLIADAWNAIPDNLDAVVDLQGGGHSYFFKGAYYLKLENQSLKSVKFGSIKSDWLGC
- Km [1]: 3.7 µM
- kcat/Km [1]: 600000 M⁻¹ s⁻¹
- Km [2]: 3.6 µM
- kcat/Km [2]: 1.96e+06 M⁻¹ s⁻¹
- Km [3]: 9.9 µM
- kcat/Km [3]: 178000 M⁻¹ s⁻¹
- Km [4]: 8.3 µM
- kcat/Km [4]: 1.34e+06 M⁻¹ s⁻¹
- Km [5]: 16.3 µM
- kcat/Km [5]: 681000 M⁻¹ s⁻¹
- Km [6]: 16.5 µM
- kcat/Km [6]: 565000 M⁻¹ s⁻¹

B3: MMP-7 (protein)
chain: YSLFPNSPKWTSKVVTYRIVSYTRDLPHITVDRLVSKALNMWGKEIPLHFRKVVWGTADIMIGFARGAHGDSYPFDGPGNTLAHAFAPGTGLGGDAHFDEDERWTDGSSLGINFLYAATHELGHSLGMGHSSDPNAVMYPTYGNGDPQNFKLSQDDIKGIQKLYGKRSNSRKK
- Km [1]: 94.7 µM
- kcat/Km [1]: 2980 M⁻¹ s⁻¹
- kcat/Km [2]: 0 M⁻¹ s⁻¹
- Km [3]: 81.2 µM
- kcat/Km [3]: 22000 M⁻¹ s⁻¹
- kcat/Km [4]: 0 M⁻¹ s⁻¹
- Km [5]: 25 µM
- kcat/Km [5]: 120000 M⁻¹ s⁻¹
- Km [6]: 26.4 µM
- kcat/Km [6]: 142000 M⁻¹ s⁻¹
